Data taken from US11826404B2, “Plasminogen treatment of conditions associated with PAI-1 overexpression” (PROMETIC BIOTHERAPEUTICS, INC., priority 2017, dated 2023).

Assays:
[1] = tested on: collagen in the inflammatory lesions of the lungs; test: Collagen quantification in inflammatory lesions of the lungs, bleomycin model, plasminogen combined with pirfenidone (Example 3); format: in vivo, mouse; details: bleomycin-induced mice, day 28, FIG. 8
Protocol: (§1) Male C57BL6 mice are administered intratracheal instillation of bleomycin sulphate (0.007 mg/mouse) at day 0. Human plasminogen was administered subcutaneously at day 10 and day 14, at a dose of either 6 mg/kg, 20 mg/kg, or 60 mg/kg. Animals were sacrificed at day 21. Collagen was quantified by histologic analysis using the staining Red sirus staining (Fluorescence) and analysed at a magnification of 400×. Collagen quantification was performed by segmentation with Image Pro Premier software, and using a sample of 20 fields located in the inflammatory lesions of the lungs. The quantity of collagen has been reported for the total surface of the regions containing inflammatory lesions. This method of quantification allows exclusion of the endogenous content of collagen that is normally contained in the tissue. […] CTGF, IL-6 and PAI-1 mRNA expressions were quantified by real-time PCR using mouse Taqman® Gene-Expression assay normalized to HPRT1 endogenous control (Student's t-test).
(§2) Pulmonary fibrosis in mice is induced by intratracheal instillation of the anticancer drug bleomycin into the mouse. […] Collagen was quantified by histologic analysis using the staining Red sirus staining (Fluorescence) and analysed as described in Example 2. IL-6 mRNA expression was quantified by real-time PCR using mouse Taqman® Gene-Expression assay normalized to HPRT1 endogenous control (Student's t-test).

IL-6 mRNA [2] = test: IL-6 mRNA expression by real-time PCR, bleomycin model, plasminogen combined with pirfenidone (Example 3); format: in vivo, mouse
Protocol: as §1, §2

[3] = tested on: collagen in the inflammatory lesions of the lungs; test: Collagen quantification in inflammatory lesions of the lungs, bleomycin-induced pulmonary fibrosis mouse model (Example 2); format: in vivo; details: human plasminogen 60 mg/kg subcutaneously at day 10 and day 14; bleomycin-induced mice; measured at day 21; FIG. 4
Description: (§3) Pulmonary fibrosis in mice is induced by intratracheal instillation of bleomycin into the mouse. Bleomycin is well-known anticancer drug. First, the bleomycin insult results in an acute inflammation as soon as day 1. Later at about day 10 to day 14, fibrotic events arise and create a chronic fibrotic condition. The bleomycin-induced mice is recognized as an animal model for pulmonary fibrosis. The evaluation of the activity of plasminogen is undertaken by treatment of the mice with plasminogen at appropriate time points. In the present study, plasminogen was administered at day 10 and day 14.
(§4) Male C57BL6 mice are administered intratracheal instillation of bleomycin sulphate (0.007 mg/mouse) at day 0. Human plasminogen was administered subcutaneously at day 10 and day 14, at a dose of either 6 mg/kg, 20 mg/kg, or 60 mg/kg. […] Collagen was quantified by histologic analysis using the staining Red sirus staining (Fluorescence) and analysed at a magnification of 400×. Collagen quantification was performed by segmentation with Image Pro Premier software, and using a sample of 20 fields located in the inflammatory lesions of the lungs. The quantity of collagen has been reported for the total surface of the regions containing inflammatory lesions. This method of quantification allows exclusion of the endogenous content of collagen that is normally contained in the tissue. […]

CTGF mRNA = CTGF mRNA expression by real-time PCR, bleomycin-induced pulmonary fibrosis mouse model (Example 2); format: in vivo; details: human plasminogen 6, 20 or 60 mg/kg subcutaneously at day 10 and day 14; bleomycin-induced mice; day 21; not dose-dependent; FIG. 5
Description: as §3, §4

IL-6 mRNA [4] = test: IL-6 mRNA expression by real-time PCR, bleomycin-induced pulmonary fibrosis mouse model (Example 2); format: in vivo; details: human plasminogen 6, 20 or 60 mg/kg subcutaneously at day 10 and day 14; bleomycin-induced mice; day 21; not dose-dependent; FIG. 6
Description: as §3, §4

PAI-1 mRNA = PAI-1 mRNA expression by real-time PCR, bleomycin-induced pulmonary fibrosis mouse model (Example 2); format: in vivo; details: human plasminogen at all doses (6, 20, 60 mg/kg) subcutaneously at day 10 and day 14; bleomycin-induced mice; day 21; FIG. 7
Description: as §3, §4

Cc1ccc(=O)n(-c2ccccc2)c1 [pirfenidone, reference compound]
fibrosis (collagen expression in the inflammatory lesions of the lungs) ([1]; pirfenidone alone, 400 mg/kg oral once a day from day 7 to day 27): efficient to reduce fibrosis
IL-6 expression versus non-treated bleomycin-induced mice (IL-6 mRNA [2]; pirfenidone alone, 400 mg/kg oral once a day from day 7 to day 27, day 28, FIG. 9): not significantly different

B1: plasminogen: Glu-plasminogen purified from pooled human plasma, purity above 95%; used in Example 2 (protein, UniProt P00747 20-810, looked up)
Plasminogen: EPLDDYVNTQGASLFSVTKKQLGAGSIEECAAKCEEDEEFTCRAFQYHSKEQQCVIMAENRKSSIIIRMRDVVLFEKKVYLSECKTGNGKNYRGTMSKTKNGITCQKWSSTSPHRPRFSPATHPSEGLEENYCRNPDNDPQGPWCYTTDPEKRYDYCDILECEEECMHCSGENYDGKISKTMSGLECQAWDSQSPHAHGYIPSKFPNKNLKKNYCRNPDRELRPWCFTTDPNKRWELCDIPRCTTPPPSSGPTYQCLKGTGENYRGNVAVTVSGHTCQHWSAQTPHTHNRTPENFPCKNLDENYCRNPDGKRAPWCHTTNSQVRWEYCKIPSCDSSPVSTEQLAPTAPPELTPVVQDCYHGDGQSYRGTSSTTTTGKKCQSWSSMTPHRHQKTPENYPNAGLTMNYCRNPDADKGPWCFTTDPSVRWEYCNLKKCSGTEASVVAPPPVVLLPDVETPSEEDCMFGNGKGYRGKRATTVTGTPCQDWAAQEPHRHSIFTPETNPRAGLEKNYCRNPDGDVGGPWCYTTNPRKLYDYCDVPQCAAPSFDCGKPQVEPKKCPGRVVGGCVAHPHSWPWQVSLRTRFGMHFCGGTLISPEWVLTAAHCLEKSPRPSSYKVILGAHQEVNLEPHVQEIEVSRLFLEPTRKDIALLKLSSPAVITDKVIPACLPSPNYVVADRTECFITGWGETQGTFGAGLLKEAQLPVIENKVCNRYEFLNGRVQSTELCAGHLAGGTDSCQGDSGGPLVCFEKDKYILQGVTSWGLGCARPNKPGVYVRVSRFVTWIEGVMRNN
collagen expression in the inflammatory lesions [3]: significantly reduced
mRNA expression of CTGF (CTGF mRNA): significantly reduced
IL-6 mRNA expression (IL-6 mRNA [4]): significantly reduced
PAI-1 mRNA expression (overexpression of PAI-1 in lungs) (PAI-1 mRNA): reduced
fibrosis (collagen expression in the inflammatory lesions of the lungs) ([1]; murine plasminogen alone, 6 mg/kg subcutaneously at days 7, 10, 13, 16, 19 and 23): efficient to reduce fibrosis
IL-6 mRNA expression (IL-6 mRNA [2]; murine plasminogen alone, 6 mg/kg subcutaneously at days 7, 10, 13, 16, 19 and 23, bleomycin-induced mice, day 28, FIG. 9): inhibits IL-6 mRNA expression
